Laboratory results: patent US6537804B1, “BCR-ABL directed compositions and uses for inhibiting Philadelphia chromesome stimulated cell growth” (Board of Regents, The University of Texas Systems, priority 1995, dated 2003)
Values belong to the molecule of their own block, whether it stands above or below them. Non-standard residues stand in square brackets, D forms with d. No end group written: not given here. pS = N[C@@H](COP(=O)(O)O)C(=O)O

Columns and labels:
P185 BCR-ABL = biological target: T1, P185 BCR-ABL (Homo sapiens, UniProt P00519+P11274); test: Bcr-Abl autokinase (immune complex kinase) assay; type: biochemical; conditions: for Inhibition of Bcr-Abl tyrosine kinase activity (autophosphorylation): 50 μg of peptide added to P185 BCR-ABL immune complexes from SUP B15 cells
T1 construct: endogenous in cells; host or cells: SUP-B15 (Ph1-positive ALL cell line)
T1 sequence (P11274+P00519 fused): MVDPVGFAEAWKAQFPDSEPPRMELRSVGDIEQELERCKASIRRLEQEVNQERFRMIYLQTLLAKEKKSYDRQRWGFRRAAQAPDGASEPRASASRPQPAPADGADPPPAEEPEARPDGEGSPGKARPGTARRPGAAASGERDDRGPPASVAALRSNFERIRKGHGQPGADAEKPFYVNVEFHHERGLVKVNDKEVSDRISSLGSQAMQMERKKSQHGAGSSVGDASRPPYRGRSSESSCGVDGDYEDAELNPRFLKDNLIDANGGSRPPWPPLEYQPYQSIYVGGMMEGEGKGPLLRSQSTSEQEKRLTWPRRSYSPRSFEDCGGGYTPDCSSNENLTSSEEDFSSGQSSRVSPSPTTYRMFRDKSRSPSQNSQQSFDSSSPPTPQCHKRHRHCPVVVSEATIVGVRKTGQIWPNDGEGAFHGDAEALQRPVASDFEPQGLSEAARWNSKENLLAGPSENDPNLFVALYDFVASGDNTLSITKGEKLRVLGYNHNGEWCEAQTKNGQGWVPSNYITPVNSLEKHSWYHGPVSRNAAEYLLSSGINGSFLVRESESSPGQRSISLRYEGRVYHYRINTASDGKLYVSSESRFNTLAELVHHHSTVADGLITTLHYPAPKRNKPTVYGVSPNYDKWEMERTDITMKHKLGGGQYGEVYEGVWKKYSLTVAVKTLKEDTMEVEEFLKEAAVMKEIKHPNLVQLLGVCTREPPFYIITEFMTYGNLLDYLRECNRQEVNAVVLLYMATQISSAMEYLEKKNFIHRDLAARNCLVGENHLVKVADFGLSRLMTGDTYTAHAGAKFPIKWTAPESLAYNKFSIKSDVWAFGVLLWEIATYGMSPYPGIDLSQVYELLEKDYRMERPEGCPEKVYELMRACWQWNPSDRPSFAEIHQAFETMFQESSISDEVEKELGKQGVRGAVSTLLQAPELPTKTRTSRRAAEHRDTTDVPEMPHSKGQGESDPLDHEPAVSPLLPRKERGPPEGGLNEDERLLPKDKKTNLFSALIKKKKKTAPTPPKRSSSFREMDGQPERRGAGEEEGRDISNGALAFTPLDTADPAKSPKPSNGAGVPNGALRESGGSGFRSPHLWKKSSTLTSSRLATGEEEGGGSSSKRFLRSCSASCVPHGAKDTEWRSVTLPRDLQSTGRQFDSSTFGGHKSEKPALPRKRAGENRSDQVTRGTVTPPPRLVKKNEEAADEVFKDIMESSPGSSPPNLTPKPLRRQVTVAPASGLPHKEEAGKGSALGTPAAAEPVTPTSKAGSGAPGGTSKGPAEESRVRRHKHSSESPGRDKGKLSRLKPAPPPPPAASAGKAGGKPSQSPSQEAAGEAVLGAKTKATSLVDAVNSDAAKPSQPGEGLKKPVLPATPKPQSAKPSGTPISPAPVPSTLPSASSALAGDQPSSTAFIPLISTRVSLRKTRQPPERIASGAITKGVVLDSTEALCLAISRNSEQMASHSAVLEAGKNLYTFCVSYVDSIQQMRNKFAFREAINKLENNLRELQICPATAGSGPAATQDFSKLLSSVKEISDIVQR
Description: FIG. 21. Phosphoserine Bcr peptide pS354 S17K (SEQ ID NO:22) inhibits the Bcr-Abl tyrosine kinase activity. The SUP B15 cell line derived from a patient with Bcr-Abl-positive acute lymphocytic leukemia (ALL) were grown in culture; cells were lysed and the Bcr-Abl oncoprotein immunoprecipitated with a monoclonal antibody p6D (anti-Abl 51-64). The immune complexes were mixed with either no peptide or 50 μg of peptide prior to addition of the kinase activating buffer containing [γ-^32P]ATP. After the assay was completed, the proteins were fractionated by SDS gel electrophoresis. Radioactive proteins were detected by phosphoimage analysis. Lane 1, no peptide; lane 2, 50 μg of pS354 S17K; lane 3, 50 μg of unphosphorylated S17K.
FIG. 23A, FIG. 23B and FIG. 23C. A Bcr fragment expressed in COS-1 cells inhibits the Bcr-Abl tyrosine kinase in vitro. In these studies, the Bcr fragment was expressed in COS-1 cells, then isolated by immunoprecipitation with anti-Bcr 181-194 antibody. This immune complex was isolated by binding to protein A Sepharose beads; these immune complexes were added to protein A Sepharose beads containing P185 BCR-ABL harvested from SUP B15 leukemic cells with anti-Abl 51-64. The autokinase reaction was performed to measure the tyrosine kinase activity of Bcr-Abl.
Immunokinase Assay: The immunokinase assays were performed as described by Campbell et al. (1990) with modifications. The cells are lysed by homogenizing the cell pellet in two different lysis buffers at 0° C. in a tight fitting Wheaton homogenizer (either 0.1% Triton-X100, 100 mM NaCl, 5 mM EDTA, 10 mM sodium phosphate, pH 7.2 or 1% Triton-X100, 100 mM NaCl, 0.5% sodium deoxycholate, 0.1% SDS, 5 mM EDTA, 10 mM sodium phosphate pH 7.2). Both buffers were supplemented with 30 mM sodium pyrophosphate, 100 KIU aprotinin, 1 mM benzamidine, 1 mM phenylmethylsulfonyl fluoride and 0.2 mM sodium vanadate.
Immunoprecipitation reactions were carried out utilizing 20-40 μl of the respective anti-peptide rabbit sera or 5 μl of monoclonal antibody at 0° C. for 1 hour. Blocked immunoprecipitations refer to those immunoprecipitation reactions performed with antisera that have been preincubated with excess cognate peptide to specifically block the anti-peptide antibodies.
The resulting antigen-antibody immunoprecipitates were collected with 30 μl of 50% protein A-Sepharose (Pharmacia, Uppsala, Sweden), pelleted and washed with RIPA buffer (0.1% Triton X-100, 0.05% SDS, 0.5% sodium deoxycholate, 100 mM NaCl in 10 mM phosphate buffer, pH 7.2), wash buffer (0.1% Triton X-100, 100 mM NaCl, in 10 mM phosphate buffer, pH 7.2) and finally with 50 mM Tris buffer, pH 7.2. […]

P210 BCR-ABL = biological target: T2, P210 BCR-ABL (Homo sapiens, UniProt P00519+P11274); test: In vivo tyrosine phosphorylation of truncated Bcr proteins in COS-1 cells, anti-pTyr Western blot; type: cell-based; conditions: COS-1 cells coexpressing p210 Bcr-Abl
T2 construct: expressed in transfected cells; host or cells: COS-1
T2 sequence (P11274+P00519 fused): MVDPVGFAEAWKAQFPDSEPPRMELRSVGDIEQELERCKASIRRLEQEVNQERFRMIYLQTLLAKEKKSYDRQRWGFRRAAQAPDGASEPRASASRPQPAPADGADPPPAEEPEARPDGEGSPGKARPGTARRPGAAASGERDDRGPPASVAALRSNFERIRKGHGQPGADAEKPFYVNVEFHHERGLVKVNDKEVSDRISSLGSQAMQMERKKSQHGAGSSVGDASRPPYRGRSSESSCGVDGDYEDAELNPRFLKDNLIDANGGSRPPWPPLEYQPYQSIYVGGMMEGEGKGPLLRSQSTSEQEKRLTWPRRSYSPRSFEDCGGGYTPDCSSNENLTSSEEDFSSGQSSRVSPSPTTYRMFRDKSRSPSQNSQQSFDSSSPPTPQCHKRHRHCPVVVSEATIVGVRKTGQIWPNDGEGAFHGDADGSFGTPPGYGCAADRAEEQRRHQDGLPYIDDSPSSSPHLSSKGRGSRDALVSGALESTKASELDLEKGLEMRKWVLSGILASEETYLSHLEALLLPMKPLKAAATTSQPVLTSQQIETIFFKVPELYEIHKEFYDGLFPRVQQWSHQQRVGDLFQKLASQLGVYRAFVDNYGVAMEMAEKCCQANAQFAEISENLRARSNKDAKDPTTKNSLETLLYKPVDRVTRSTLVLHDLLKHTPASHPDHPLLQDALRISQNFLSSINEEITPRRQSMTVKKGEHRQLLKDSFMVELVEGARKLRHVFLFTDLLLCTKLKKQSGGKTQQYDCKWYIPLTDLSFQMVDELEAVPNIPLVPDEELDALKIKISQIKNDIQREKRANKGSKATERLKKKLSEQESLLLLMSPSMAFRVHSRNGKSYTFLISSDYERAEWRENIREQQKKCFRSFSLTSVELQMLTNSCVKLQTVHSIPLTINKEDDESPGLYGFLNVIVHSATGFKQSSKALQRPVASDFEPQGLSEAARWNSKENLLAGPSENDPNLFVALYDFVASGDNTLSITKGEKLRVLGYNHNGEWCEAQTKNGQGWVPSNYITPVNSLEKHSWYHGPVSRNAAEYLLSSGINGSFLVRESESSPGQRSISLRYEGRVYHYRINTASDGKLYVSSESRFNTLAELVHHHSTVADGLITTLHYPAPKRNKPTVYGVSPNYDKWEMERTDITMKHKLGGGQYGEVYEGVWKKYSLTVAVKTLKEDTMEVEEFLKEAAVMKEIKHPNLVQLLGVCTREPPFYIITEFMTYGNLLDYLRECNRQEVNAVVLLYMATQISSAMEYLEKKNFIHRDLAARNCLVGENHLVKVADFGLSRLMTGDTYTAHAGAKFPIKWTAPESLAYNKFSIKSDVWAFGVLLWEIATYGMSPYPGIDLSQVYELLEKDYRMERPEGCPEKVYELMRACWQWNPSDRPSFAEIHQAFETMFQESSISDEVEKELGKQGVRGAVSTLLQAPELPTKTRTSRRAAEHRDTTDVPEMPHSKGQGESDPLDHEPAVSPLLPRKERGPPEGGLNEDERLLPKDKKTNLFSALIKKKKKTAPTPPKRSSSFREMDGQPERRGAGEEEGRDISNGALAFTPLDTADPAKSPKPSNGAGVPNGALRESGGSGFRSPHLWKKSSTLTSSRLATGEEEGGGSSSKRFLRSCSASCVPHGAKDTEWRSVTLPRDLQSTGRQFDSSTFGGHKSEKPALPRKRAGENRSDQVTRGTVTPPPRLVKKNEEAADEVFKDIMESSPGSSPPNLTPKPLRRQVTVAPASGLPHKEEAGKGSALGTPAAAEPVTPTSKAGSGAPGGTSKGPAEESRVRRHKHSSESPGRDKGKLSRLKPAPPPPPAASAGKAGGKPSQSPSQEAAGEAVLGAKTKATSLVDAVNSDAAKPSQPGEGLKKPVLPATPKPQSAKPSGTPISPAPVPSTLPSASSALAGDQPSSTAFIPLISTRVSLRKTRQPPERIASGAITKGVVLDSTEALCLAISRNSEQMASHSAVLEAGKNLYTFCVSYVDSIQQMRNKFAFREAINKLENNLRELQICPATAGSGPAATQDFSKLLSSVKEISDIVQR
From the text: FIG. 6A and FIG. 6B. In vivo tyrosine phosphorylation of truncated Bcr first exon sequences by Bcr-Abl. COS-1 vectors expressing Bcr150, Bcr221, and Bcr413 proteins, respectively, were expressed in COS-1 cells in the presence and absence of […].
The next tyrosine is at residue 177, and it is expected to be phosphorylated by Bcr-Abl (Puil et al., 1994). Bcr221 is tyrosine phosphorylated, but as with Bcr413, only in the presence of Bcr-Abl.
Transient transfections of COS1 cells were performed by the diethylaminoethyl (DEAE)-Dextran procedure. Transfection was initiated when COS1 cells were about 60%-80% confluent. After washing once with phosphate-buffered saline (PBS) and once with Tris-buffered Saline-0.02% Dextrose (TBS-D), cells were incubated with TBS-D containing 0.2 mg/ml DEAE-Dextran and 2 μg/ml of each added plasmid. The supernatant was then removed after 5-10 minutes when the cells started to round up and shrink.
After washing once with TBS-D and once with PBS, the cells were incubated in DMEM supplemented with 10% fetal calf serum and 100 μg/ml of chloroquine at 37° C. The chloroquine containing media was removed after 3-5 hours and the cells were washed three times with DMEM without fetal calf serum. The cells were then incubated in DMEM supplemented with 10% fetal calf serum at 37° C. for 2-3 days before harvesting.
COS-1 vectors expressing Bcr159, Bcr221, and Bcr413 proteins, respectively, were expressed in COS-1 cells in the presence and absence of p210 Bcr-Abl.

casein = test: Immune complex kinase assay of mutant P160 BCR, transphosphorylation of casein; type: biochemical; conditions: mutant P160 BCR expressed in COS-1 cells
From the text: Mutant forms of P160^BCR were expressed in COS-1 cells and tested for serine/threonine kinase activities in immune complex kinase assays.
Using the intensities of the P160^BCR bands as an indication of the amount of active P160^BCR in the immune complex and the intensities of the casein bands as a measure of transphosphorylation activity, the transphosphorylation activity of the Y360F Bcr mutant was reduced about sevenfold, compared with that of the wild type. Similarly, the Y360F Bcr mutant was also defective in transphosphorylating another exogenous substrate, histone H1.
The amounts of Bcr within these immune complexes were quantitated in two ways. In a first method, the amounts of Bcr mutants would be underestimated by about 10%, compared with that of the wild type. On the basis of these measurements, the specific activity of transkinase activity (casein intensity/P160^BCR intensity) of the Y360F Bcr mutant (0.03) was reduced more than 20-fold in this study, compared with that of the wild type.
The second method of estimating the amounts of P160^BCR in immune complexes involved the Western blotting of these immune complexes with an anti-Bcr antibody. The specific activity of Y360F was reduced by about sixfold. […] By using autophosphorylation of the Bcr protein as a measure of its relative amount, the reduction of Bcr's transkinase by the Y360F mutation was about sevenfold, confirming the results obtained by the Western blot method.

Molecule: 350-SSRVpS*PSPTTYRMFRDK-366 (SSRV[pS]PSPTTYRMFRDK) [pS354 S17K]
Inhibition of Bcr-Abl tyrosine kinase activity (autophosphorylation) (P185 BCR-ABL): strongly inhibited

B1: Bcr fragment (64-413): Bcr sequences from amino acid 64 to 413 with both A and B serine-rich boxes, expressed in COS-1 cells (protein)
chain: AKEKKSYDRQRWGFRRAAQAPDGASEPRASASRPQPAPADGADPPPAEEPEARPDGEGSPGKARPGTARRPGAAASGERDDRGPPASVAALRSNFERIRKGHGQPGADAEKPFYVNVEFHHERGLVKVNDKEVSDRISSLGSQAMQMERKKSQHGAGSSVGDASRPPYRGRSSESSCGVDGDYEDAELNPRFLKDNLIDANGGSRPPWPPLEYQPYQSIYVGGMMEGEGKGPLLRSQSTSEQEKRLTWPRRSYSPRSFEDCGGGYTPDCSSNENLTSSEEDFSSGQSSRVSPSPTTYRMFRDKSRSPSQNSQQSFDSSSPPTPQCHKRHRHCPVVVSEATIVGVRKTGQI
Inhibition of Bcr-Abl tyrosine kinase activity (P185 autokinase) (P185 BCR-ABL; immune complexes on protein A Sepharose beads added to P185 BCR-ABL immunoprecipitates from SUP B15): potent inhibitor | Inhibitory activity towards Bcr-Abl kinase after boiling (P185 BCR-ABL; immunoprecipitate boiled for a few minutes prior to addition to the kinase assay): strongly decreased

B2: Bcr221: amino acids 1-221 of Bcr, N-terminal fragment (protein)
chain: MVDPVGFAEAWKAQFPDSEPPRMELRSVGDIEQELERCKASIRRLEQEVNQERFRMIYLQTLLAKEKKSYDRQRWGFRRAAQAPDGASEPRASASRPQPAPADGADPPPAEEPEARPDGEGSPGKARPGTARRPGAAASGERDDRGPPASVAALRSNFERIRKGHGQPGADAEKPFYVNVEFHHERGLVKVNDKEVSDRISSLGSQAMQMERKKSQHGAGS
Tyrosine phosphorylation by Bcr-Abl in cells (P210 BCR-ABL): induces tyrosine phosphorylation

B4: Bcr413: amino acids 1-413 of Bcr, N-terminal fragment (protein)
chain: MVDPVGFAEAWKAQFPDSEPPRMELRSVGDIEQELERCKASIRRLEQEVNQERFRMIYLQTLLAKEKKSYDRQRWGFRRAAQAPDGASEPRASASRPQPAPADGADPPPAEEPEARPDGEGSPGKARPGTARRPGAAASGERDDRGPPASVAALRSNFERIRKGHGQPGADAEKPFYVNVEFHHERGLVKVNDKEVSDRISSLGSQAMQMERKKSQHGAGSSVGDASRPPYRGRSSESSCGVDGDYEDAELNPRFLKDNLIDANGGSRPPWPPLEYQPYQSIYVGGMMEGEGKGPLLRSQSTSEQEKRLTWPRRSYSPRSFEDCGGGYTPDCSSNENLTSSEEDFSSGQSSRVSPSPTTYRMFRDKSRSPSQNSQQSFDSSSPPTPQCHKRHRHCPVVVSEATIVGVRKTGQI
Tyrosine phosphorylation by Bcr-Abl in cells (P210 BCR-ABL): induces tyrosine phosphorylation

Other lines, results leading:

Inhibition of Bcr-Abl tyrosine kinase activity (autophosphorylation) (P185 BCR-ABL): little affect
Molecule: unphosphorylated S17K: unphosphorylated form of Bcr peptide S17K, Bcr residues 350 to 366 (SSRVSPSPTTYRMFRDK)

Ability to transphosphorylate casein compared with wild-type Bcr (casein): not significantly altered
B3: Bcr Y283F: P160 BCR with tyrosine 283 to phenylalanine mutation (protein, UniProt P11274 1-1271, looked up, variant Y283F)
Breakpoint cluster region …: MVDPVGFAEAWKAQFPDSEPPRMELRSVGDIEQELERCKASIRRLEQEVNQERFRMIYLQTLLAKEKKSYDRQRWGFRRAAQAPDGASEPRASASRPQPAPADGADPPPAEEPEARPDGEGSPGKARPGTARRPGAAASGERDDRGPPASVAALRSNFERIRKGHGQPGADAEKPFYVNVEFHHERGLVKVNDKEVSDRISSLGSQAMQMERKKSQHGAGSSVGDASRPPYRGRSSESSCGVDGDYEDAELNPRFLKDNLIDANGGSRPPWPPLEYQPYQSIFVGGMMEGEGKGPLLRSQSTSEQEKRLTWPRRSYSPRSFEDCGGGYTPDCSSNENLTSSEEDFSSGQSSRVSPSPTTYRMFRDKSRSPSQNSQQSFDSSSPPTPQCHKRHRHCPVVVSEATIVGVRKTGQIWPNDGEGAFHGDADGSFGTPPGYGCAADRAEEQRRHQDGLPYIDDSPSSSPHLSSKGRGSRDALVSGALESTKASELDLEKGLEMRKWVLSGILASEETYLSHLEALLLPMKPLKAAATTSQPVLTSQQIETIFFKVPELYEIHKEFYDGLFPRVQQWSHQQRVGDLFQKLASQLGVYRAFVDNYGVAMEMAEKCCQANAQFAEISENLRARSNKDAKDPTTKNSLETLLYKPVDRVTRSTLVLHDLLKHTPASHPDHPLLQDALRISQNFLSSINEEITPRRQSMTVKKGEHRQLLKDSFMVELVEGARKLRHVFLFTDLLLCTKLKKQSGGKTQQYDCKWYIPLTDLSFQMVDELEAVPNIPLVPDEELDALKIKISQIKNDIQREKRANKGSKATERLKKKLSEQESLLLLMSPSMAFRVHSRNGKSYTFLISSDYERAEWRENIREQQKKCFRSFSLTSVELQMLTNSCVKLQTVHSIPLTINKEDDESPGLYGFLNVIVHSATGFKQSSNLYCTLEVDSFGYFVNKAKTRVYRDTAEPNWNEEFEIELEGSQTLRILCYEKCYNKTKIPKEDGESTDRLMGKGQVQLDPQALQDRDWQRTVIAMNGIEVKLSVKFNSREFSLKRMPSRKQTGVFGVKIAVVTKRERSKVPYIVRQCVEEIERRGMEEVGIYRVSGVATDIQALKAAFDVNNKDVSVMMSEMDVNAIAGTLKLYFRELPEPLFTDEFYPNFAEGIALSDPVAKESCMLNLLLSLPEANLLTFLFLLDHLKRVAEKEAVNKMSLHNLATVFGPTLLRPSEKESKLPANPSQPITMTDSWSLEVMSQVQVLLYFLQLEAIPAPDSKRQSILFSTEV

Tyrosine phosphorylation by Bcr-Abl in cells (P210 BCR-ABL): not
B5: Bcr159: amino acids 1-159 of Bcr, N-terminal fragment (protein)
chain: MVDPVGFAEAWKAQFPDSEPPRMELRSVGDIEQELERCKASIRRLEQEVNQERFRMIYLQTLLAKEKKSYDRQRWGFRRAAQAPDGASEPRASASRPQPAPADGADPPPAEEPEARPDGEGSPGKARPGTARRPGAAASGERDDRGPPASVAALRSNFE
